These results are taken from US20020001840A1.

In the assay the target is purified αvβ3 integrin (UniProt P06756). The assay is described as follows: cell-based or functional assay.
Sequence of purified αvβ3 integrin (P06756 31-1048, form in doubt, chain 1 of 2): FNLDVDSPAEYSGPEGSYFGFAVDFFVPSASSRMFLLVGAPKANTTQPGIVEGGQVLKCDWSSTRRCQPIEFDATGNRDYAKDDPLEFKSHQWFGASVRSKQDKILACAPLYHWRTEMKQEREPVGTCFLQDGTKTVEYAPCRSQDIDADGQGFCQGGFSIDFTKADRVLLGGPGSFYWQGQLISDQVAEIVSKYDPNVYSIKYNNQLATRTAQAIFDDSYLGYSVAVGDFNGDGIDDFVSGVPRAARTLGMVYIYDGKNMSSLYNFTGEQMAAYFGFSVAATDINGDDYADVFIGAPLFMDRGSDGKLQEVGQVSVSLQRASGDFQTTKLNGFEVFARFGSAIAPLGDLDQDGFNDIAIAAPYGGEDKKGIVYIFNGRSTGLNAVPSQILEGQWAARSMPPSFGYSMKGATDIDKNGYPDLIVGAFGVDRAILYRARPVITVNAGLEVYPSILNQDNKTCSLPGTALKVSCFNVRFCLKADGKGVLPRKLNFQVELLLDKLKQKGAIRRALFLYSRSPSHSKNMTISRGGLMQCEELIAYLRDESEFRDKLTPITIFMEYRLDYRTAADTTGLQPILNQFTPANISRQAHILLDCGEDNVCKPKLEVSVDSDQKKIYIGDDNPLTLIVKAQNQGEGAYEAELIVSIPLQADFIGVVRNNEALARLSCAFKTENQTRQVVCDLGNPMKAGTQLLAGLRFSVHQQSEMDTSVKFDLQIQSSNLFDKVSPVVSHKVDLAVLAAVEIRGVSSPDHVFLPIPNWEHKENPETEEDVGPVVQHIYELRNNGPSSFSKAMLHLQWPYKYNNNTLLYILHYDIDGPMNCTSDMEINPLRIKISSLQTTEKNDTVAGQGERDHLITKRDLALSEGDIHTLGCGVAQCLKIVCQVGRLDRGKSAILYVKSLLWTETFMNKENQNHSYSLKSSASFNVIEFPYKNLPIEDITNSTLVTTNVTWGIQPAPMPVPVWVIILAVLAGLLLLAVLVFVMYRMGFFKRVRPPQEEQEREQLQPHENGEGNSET
Sequence of purified αvβ3 integrin (P05106 27-788, form in doubt, chain 2 of 2, further chain): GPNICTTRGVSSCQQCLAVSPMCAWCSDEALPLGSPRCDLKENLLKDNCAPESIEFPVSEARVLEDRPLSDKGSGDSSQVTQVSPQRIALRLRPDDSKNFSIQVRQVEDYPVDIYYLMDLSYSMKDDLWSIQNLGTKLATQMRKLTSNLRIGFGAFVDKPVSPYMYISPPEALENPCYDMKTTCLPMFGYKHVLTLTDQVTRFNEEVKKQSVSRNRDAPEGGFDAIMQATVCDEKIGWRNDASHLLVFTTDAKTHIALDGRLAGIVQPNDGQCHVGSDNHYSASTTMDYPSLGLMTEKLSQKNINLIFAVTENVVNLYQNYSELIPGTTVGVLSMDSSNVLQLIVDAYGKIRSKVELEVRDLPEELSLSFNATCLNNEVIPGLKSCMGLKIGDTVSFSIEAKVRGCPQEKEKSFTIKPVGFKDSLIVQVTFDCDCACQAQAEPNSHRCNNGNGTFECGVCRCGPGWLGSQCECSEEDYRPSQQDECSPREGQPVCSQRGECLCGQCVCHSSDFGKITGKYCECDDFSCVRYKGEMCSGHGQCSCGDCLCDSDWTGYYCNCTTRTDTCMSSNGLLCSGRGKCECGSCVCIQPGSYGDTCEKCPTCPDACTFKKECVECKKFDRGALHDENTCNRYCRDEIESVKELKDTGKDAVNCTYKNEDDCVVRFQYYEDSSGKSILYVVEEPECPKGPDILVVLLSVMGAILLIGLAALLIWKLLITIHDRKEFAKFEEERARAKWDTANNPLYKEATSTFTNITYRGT

Consider “mutADAM 23 disintegrin-like domain (E466A) expressed as a fusion protein with GST (from UniProt O75077 498-588)”, for which the cell adhesion promoting effect, SH-Sy5y neuroblastoma cells turned out to be 40%.
